Assay results from PMC12311003, “Biochemical characterization of a novel purified lectin extracted from Pleurotus ostreatus mushroom for its antiviral activity” (Scientific Reports, 2025).

What was measured:
[1] = target: scavenger receptor class B-type I (SR-B1) (UniProt Q8WTV0); assay: AlphaScreen or HTRF
[2] = target: CD81 (human (endogenous in PBMCs)) (UniProt P60033); assay: flow cytometry on cells; 1 x 10^6 PBMCs incubated 2 h with 12.5 µM POL, then anti-CD81-FITC antibody at 4 °C for 30 min; binding taken from the fall in unbound CD81
HBV polymerase = target: T1, HBV polymerase (Hepatitis B virus ayw/Japan/JYW796/1988, UniProt Q9QMI1); assay: [3H]TTP incorporation, scintillation counting; assay type: biochemical
T1 construct: gene P

HCV NS3/NS4A protease = HCV NS3/NS4A protease (Hepatitis C virus (isolate BK), UniProt P26663); conditions: NS4A/NS4B-derived fluorogenic peptide substrate, 30 min, 37 °C; used as comparator drug
Chain of HCV NS3/NS4A protease (P26663 1027-1657): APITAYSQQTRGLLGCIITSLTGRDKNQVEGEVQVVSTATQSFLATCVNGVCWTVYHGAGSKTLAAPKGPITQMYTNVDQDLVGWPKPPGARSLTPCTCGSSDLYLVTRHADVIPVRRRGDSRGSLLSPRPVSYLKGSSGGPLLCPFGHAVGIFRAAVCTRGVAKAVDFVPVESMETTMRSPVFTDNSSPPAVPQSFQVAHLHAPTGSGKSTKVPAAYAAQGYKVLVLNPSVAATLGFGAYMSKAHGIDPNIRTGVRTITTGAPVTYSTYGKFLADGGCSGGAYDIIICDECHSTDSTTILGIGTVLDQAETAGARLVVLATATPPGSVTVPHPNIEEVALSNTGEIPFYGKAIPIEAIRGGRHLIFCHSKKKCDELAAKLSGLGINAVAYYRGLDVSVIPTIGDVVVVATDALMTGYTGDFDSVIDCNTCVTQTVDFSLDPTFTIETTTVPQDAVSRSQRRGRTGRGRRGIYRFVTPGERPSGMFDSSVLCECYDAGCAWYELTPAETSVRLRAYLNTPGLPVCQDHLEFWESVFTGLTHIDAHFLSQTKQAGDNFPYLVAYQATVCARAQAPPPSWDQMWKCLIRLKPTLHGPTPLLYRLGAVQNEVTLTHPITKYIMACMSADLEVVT
Chain of HCV NS3/NS4A protease (P26663 1658-1711): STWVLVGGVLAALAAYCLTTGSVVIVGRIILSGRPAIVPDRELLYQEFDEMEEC

Chain of scavenger receptor class B-type I (SR-B1) (Q8WTV0 whole entry): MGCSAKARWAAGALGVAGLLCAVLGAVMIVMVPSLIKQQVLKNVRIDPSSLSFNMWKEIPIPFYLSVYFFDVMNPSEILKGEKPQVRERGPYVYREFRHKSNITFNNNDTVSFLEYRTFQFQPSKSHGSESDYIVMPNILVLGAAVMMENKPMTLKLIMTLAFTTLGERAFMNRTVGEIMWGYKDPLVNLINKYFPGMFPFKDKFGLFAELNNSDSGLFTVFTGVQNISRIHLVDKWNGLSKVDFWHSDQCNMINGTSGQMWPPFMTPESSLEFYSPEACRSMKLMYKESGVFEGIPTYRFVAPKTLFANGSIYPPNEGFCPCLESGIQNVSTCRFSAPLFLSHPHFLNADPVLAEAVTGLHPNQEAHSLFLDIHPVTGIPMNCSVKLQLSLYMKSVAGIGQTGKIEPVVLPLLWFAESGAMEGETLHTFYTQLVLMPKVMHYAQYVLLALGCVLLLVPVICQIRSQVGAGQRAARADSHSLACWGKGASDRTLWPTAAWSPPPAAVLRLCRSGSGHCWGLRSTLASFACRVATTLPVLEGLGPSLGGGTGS
Chain of CD81 (human (endogenous in PBMCs)) (P60033 whole entry): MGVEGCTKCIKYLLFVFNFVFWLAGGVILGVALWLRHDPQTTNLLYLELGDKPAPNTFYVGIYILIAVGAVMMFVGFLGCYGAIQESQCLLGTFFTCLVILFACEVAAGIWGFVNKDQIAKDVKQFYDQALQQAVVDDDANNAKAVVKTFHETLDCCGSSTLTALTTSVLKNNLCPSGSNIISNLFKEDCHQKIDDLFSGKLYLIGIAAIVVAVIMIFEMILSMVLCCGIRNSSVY
T1 sequence (Q9QMI1 whole entry): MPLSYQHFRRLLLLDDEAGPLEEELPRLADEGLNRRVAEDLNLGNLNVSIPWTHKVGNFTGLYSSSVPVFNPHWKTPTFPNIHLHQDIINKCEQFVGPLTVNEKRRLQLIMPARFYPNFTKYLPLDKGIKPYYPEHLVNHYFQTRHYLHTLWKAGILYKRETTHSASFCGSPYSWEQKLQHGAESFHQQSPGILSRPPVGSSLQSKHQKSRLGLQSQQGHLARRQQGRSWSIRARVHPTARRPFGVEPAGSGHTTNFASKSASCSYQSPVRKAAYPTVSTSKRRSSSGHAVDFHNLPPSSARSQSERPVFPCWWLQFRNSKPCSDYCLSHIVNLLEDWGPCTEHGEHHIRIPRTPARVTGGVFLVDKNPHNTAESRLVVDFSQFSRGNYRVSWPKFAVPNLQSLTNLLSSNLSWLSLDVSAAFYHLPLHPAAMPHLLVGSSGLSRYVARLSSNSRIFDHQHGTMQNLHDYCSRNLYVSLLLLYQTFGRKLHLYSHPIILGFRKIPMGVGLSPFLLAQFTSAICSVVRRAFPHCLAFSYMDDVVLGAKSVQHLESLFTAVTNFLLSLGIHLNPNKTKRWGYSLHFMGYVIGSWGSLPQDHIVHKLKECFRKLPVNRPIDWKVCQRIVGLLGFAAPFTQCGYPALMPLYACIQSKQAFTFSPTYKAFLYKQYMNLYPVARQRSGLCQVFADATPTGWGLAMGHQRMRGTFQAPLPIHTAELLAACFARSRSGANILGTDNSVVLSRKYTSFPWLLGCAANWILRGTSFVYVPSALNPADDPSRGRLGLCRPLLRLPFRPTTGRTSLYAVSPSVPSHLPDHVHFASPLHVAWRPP

With “Pleurotus ostreatus lectin (POL) (natural protein)” the IC50 [1] was 10.1 nM, the Kd [1] was 3.6 nM and the Ki [1] was 3.03 nM. The percentage of binding to CD81 at 12.5 µM [2] was 58.8%.
`Nc1ccn([C@@H]2CS[C@H](CO)O2)c(=O)n1` [LAM, lamivudine] gave an IC50 (HBV polymerase) of 6.52 nM.
For `CC(C)OC(=O)[C@H](C)N[P@](=O)(OC[C@H]1O[C@@H](n2ccc(=O)[nH]c2=O)[C@](C)(F)[C@@H]1O)Oc1ccccc1` [SOF, sofosbuvir], the IC50 (HCV NS3/NS4A protease) was 15.5 nM.
